Literature values as cited in PMC5751705.

Experiments:
[1] = target: YopB (Yersinia pestis) (UniProt Q06114)
[2] = target: substance P (Homo sapiens) (UniProt P20366)
Chain of substance P (Homo sapiens) (P20366 whole entry, looked up): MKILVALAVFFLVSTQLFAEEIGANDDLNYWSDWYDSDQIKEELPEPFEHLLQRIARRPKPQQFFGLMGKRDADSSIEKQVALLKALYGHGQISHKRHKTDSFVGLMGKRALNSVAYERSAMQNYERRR

Chain of NK1R (P25103 whole entry): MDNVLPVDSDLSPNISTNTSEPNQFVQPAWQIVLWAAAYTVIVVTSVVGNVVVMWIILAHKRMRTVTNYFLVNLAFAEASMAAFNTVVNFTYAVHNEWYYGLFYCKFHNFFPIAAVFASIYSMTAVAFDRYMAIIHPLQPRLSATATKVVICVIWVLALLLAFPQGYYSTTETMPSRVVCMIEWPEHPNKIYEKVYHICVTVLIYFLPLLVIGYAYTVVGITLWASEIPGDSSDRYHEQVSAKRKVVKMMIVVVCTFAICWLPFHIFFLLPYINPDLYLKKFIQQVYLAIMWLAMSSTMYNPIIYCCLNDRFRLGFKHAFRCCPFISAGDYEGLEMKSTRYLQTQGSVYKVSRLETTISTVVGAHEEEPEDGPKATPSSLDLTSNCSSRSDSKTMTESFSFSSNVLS
Chain of LcrV (P0C7U7 whole entry): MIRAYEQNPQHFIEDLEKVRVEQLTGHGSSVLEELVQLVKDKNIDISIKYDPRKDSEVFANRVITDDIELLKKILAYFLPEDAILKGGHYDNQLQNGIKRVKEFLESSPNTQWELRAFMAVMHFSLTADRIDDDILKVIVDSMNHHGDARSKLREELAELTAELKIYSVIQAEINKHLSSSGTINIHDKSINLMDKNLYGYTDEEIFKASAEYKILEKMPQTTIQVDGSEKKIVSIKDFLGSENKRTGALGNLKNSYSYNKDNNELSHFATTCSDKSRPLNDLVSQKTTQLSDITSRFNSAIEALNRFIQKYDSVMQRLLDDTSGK
Chain of YopB (Yersinia pestis) (Q06114 whole entry): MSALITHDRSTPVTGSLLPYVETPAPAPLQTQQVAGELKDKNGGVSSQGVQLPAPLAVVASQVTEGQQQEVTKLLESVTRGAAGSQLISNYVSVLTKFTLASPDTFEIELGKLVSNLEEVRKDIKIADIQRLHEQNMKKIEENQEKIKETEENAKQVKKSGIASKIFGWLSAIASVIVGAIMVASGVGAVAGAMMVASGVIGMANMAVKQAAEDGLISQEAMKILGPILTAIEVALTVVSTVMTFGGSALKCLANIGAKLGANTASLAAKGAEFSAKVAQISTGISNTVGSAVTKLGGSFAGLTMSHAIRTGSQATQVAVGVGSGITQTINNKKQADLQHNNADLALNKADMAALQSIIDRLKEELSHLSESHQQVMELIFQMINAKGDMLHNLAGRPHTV

Substance | Kd [1] | Kd [2]
LcrV (from UniProt P0C7U7) | 20.5 nM | –
NK1R (from UniProt P25103) | – | 83 nM
